Article PMC5570165

System: p19 N15K,G16R
Assay: BLI / MSD-SET
Details: 2'-OMe at select positions, BLI: citrate-phosphate buffer, 100 mM NaCl, 0.1% BSA, 0.002% Tween-20, 37 C (pH of the siRNA assay not stated), MSD-SET: PBS, 100 pM siRNA, 24 h …

With “AACGCUGGGCGUUAAUCAATT / UUGAUUAACGCCCAGCGUUTT [Seq 7 siRNA]” the binding signal (fold higher affinity than p19 (up to)) was 160.
